Results published in patent US12296018B2, “Albumin binding peptide-drug (AlBiPeD) conjugates and methods of making and using same” (priority 2018, dated 2025).
Values joined by “and” are separate entries in the source; they are usually repeats but may differ in a detail not shown here. Equal values may be shown once. “Also recorded” adds a separate entry of the source.

What was measured:
[1] = system: MIA PaCa-2 pancreatic tumor xenografts; assay: In vivo tumor regression, MIA PaCa-2 xenograft model; set-up: species or system nude BALB/c mice
Experimental: In vivo tumor regression For in vivo tumor implantation, C26 cells at 5×10^5 cells in 30 μL Minimum Essential Medium (MEM) (Invitrogen, Carlsbad, CA) and MIA PaCa-2 cells at 2×10^6 cells in 50 μL 10:90 v/v MEM: Matrigel matrix (Corning Inc, Corning, New York) were inoculated in the right flank of normal and athymic nude BALB/c mice, respectively. Tumor cells were allowed to grow until the tumor volume, calculated as π/6×length×width^2, reached 75-100 mm^3 for C26 tumors and 100-125 mm^3 for MIA PaCa-2 tumors. Tumor bearing mice were then treated with ABD-Dox at 10 and 20 mg Dox Equiv.kg^−1 BW, AlDox at 20 mg Dox Equiv.kg^−1 BW, and free Dox at 10 mgkg^−1 BW. Tumor volumes and body weights were monitored for 100 days after treatment and mice displaying excessive tumor volume (>[…]), body weight loss (>15%), or ill health were euthanized. Tumor growth and survival data were analyzed by GraphPad Prism software. Survival curves were generated with the Kaplan-Meier method and compared with the log-rank (Mantel-Cox) test. Tumor growth data were compared with a paired one-way ANOVA followed by Tukey-Kramer (Tukey's) post-hoc test. P<0.05 was considered as statistically significant.
For in vivo tumor regression studies, a single dose of ABD-Dox was injected via tail vein at 10 mg Dox Equiv.kg^−1 BW (MTD of free Dox) and 20 mg Dox Equiv.kg^−1 BW (MTD of ABD-Dox) in separate cohorts of BALB/c mice with s.c. C26 tumors or nude mice with s.c. MIA Paca-2 tumors. Free Dox was injected at its MTD of 10 mgkg-1 BW, and AlDox was injected at 20 mg Dox Equiv.kg^−1 BW, a dose that was reported to be safe in previous studies. All animals were injected when the tumors were 75-100 mm; in size for C26 tumors and 100-125 mm^3 for MIA PaCa-2 tumors.

[2] = Tissue biodistribution in C26 tumor-bearing BALB/c mice; format: in vivo
Text: The tissue concentration of Dox.

[3] = Intravenous pharmacokinetics in healthy BALB/c mice
Experimental: Pharmacokinetics and biodistribution Pharmacokinetics and biodistribution experiments were performed to study the concentration of ABD-Dox in blood and tissues over time following intravenous (i.v.) administration. For the pharmacokinetic study, ABD-Dox and Dox in PBS and AlDox in 10 mM sodium phosphate, 5% D-(+)-glucose, pH 5.8 were injected at 5 mg Dox Equiv. per kg of body weight (BW) into healthy BALB/c mice. 10 μL blood samples were collected at 40 s, 15 min and 30 min, and 2, 4, 8, 24, 48, 72 and 96 h post injection and were diluted into heparinized PBS (1 kUmL^−1), and centrifuged at 4,000 rcf, 10 min, 4° C. to collect the plasma. 10 μL of the plasma samples were then diluted in 490 μL of acidified isopropanol (0.075 M HCl, 10% water) and incubated overnight at 4° C. For the biodistribution study, ABD-Dox and Dox in PBS were injected at 5 mg Dox Equiv.kg^−1 BW into C26 tumor-bearing BALB/c mice. At 2 h, 24 h, and 72 h post-injection, mice were sacrificed and tumor, heart, lung, liver, spleen, kidney and muscle tissues were dissected, weighed, homogenized in acidified isopropanol using a Mini-Beadbeater (Biospec, Bartlesville, OK) with 2 mm diameter zirconia beads for 1-2 min, and were incubated overnight at 4° C. Following overnight incubation in acidified isopropanol, plasma and tissue samples were centrifuged at 16,000 rcf, 4° C. for 10 min and the supernatants were loaded onto black 96-well plates in duplicate and the Dox fluorescence was measured using on a Victor3 microplate reader (Perkin Elmer, Waltham, MA) with fluorescence excitation at 485 nm and emission at 590 nm. Tissues were also dissected from three untreated mice, processed in the same manner, serially diluted, and loaded on the plates to prepare a standard curve of fluorescence intensity versus the weight for each tissue from which the background tissue fluorescence was calculated and subtracted for each sample. Serial dilution of free Dox in acidified isopropanol was used as standard to quantify the Dox concentration as […] per liter of plasma (μM) and as the percent of the injected dose per gram (% ID g^−1) in the tumor and other tissues. Plasma concentrations of Dox Equiv. of ABD-Dox versus time were fit to a two-compartment model using SAAM II software (SAAM Institute, Seattle, WA) and the elimination half-life and the area-under-curve were computed. The tissue concentration of Dox. Equiv. of ABD-Dox and free Dox at each time point were compared in GraphPad Prism software (GraphPad, San Diego, CA) by Student's t-test with P<0.05 considered statistically significant.

[4] = pH-dependent Dox release from ABD-Dox conjugate (size exclusion HPLC); format: physicochemical
Experimental: Drug release Dox release from the ABD-Dox conjugate was measured at pH 7.4 and 5.0, corresponding to the physiological pH and late endosomal pH, respectively. ABD-Dox in PBS (400 μM Dox Equiv.) was diluted with an equal volume of either 0.1 M Na—PO4, pH 7.4 buffer, 0.1 M Na-acetate, pH 5.0 buffer, incubated at 37° C. for 0, 0.25, 0.5, 1, 2, 4, 6, and 24 h, and neutralized using an equal volume of 0.1 M Na—PO4, pH 7.4 buffer. Samples were then analyzed by size exclusion HPLC using the same chromatography conditions as described above for the characterization of Dox conjugates and the percentage of released Dox was calculated by integrating the area under the peak corresponding to unbound Dox. The cumulative percent released Dox (F %, released) versus time was fit to a first order release model: F %, released=a[1−exp(−ln(2)t/t1/2)] where t is the time (h) after incubation, tia is the half-maximal release time (h), and a (%) is the maximum extent of drug release, using GraphPad Prism software (GraphPad, San Diego, CA).

Substance: ABD-Dox (GLAEAKVLANRELDKYGVSDYYKNLINNAKTVEGVKALIDEILAALPCGGCGGCGGCGG)
- survival compared with free Dox ([1]; 10 mg Dox Equiv.kg^−1 BW): No significant difference
- survival compared with AlDox ([1]; 20 mg Dox Equiv.kg^−1 BW): No significant difference
- survival compared with free Dox ([1]; 20 mg Dox Equiv.kg^−1 BW): significantly longer survival
- tumor regression compared with AlDox ([1]; 20 mg Dox Equiv.kg^−1 BW): superior tumor regression efficacy
- tumor-free period compared with AlDox ([1]; 20 mg Dox Equiv.kg^−1 BW, 100-day span): longer tumor-free period
- mice showing tumor disappearance ([1]; by day 15 after treatment, 20 mg Dox Equiv.kg^−1 BW): all
- tumor recurrence in tumor-eradicated mice ([1]; throughout the 100 day course of study, 20 mg Dox Equiv.kg^−1 BW): 25%
- AUC in other tissues compared to free Dox ([2]; 2 to 72 h): No significant difference
- AUC in the spleen, lower than free Dox ([2]; 2 to 72 h): ~50%
- AUC in the tumor, fold greater than free Dox ([2]; 2 to 72 h): 16 fold
- concentration in kidneys compared to free Dox ([2]; 2 h): lower concentration
- concentration in liver compared to free Dox ([2]; 2 h): lower concentration
- concentration in muscle compared to free Dox ([2]; 2 h): lower concentration
- concentration in spleen compared to free Dox ([2]; 2 h): lower concentration
- concentration in heart compared to free Dox ([2]; 24 h): higher concentration
- concentration in liver compared to free Dox ([2]; 24 h): higher concentration
- concentration in lungs compared to free Dox ([2]; 24 h): higher concentration
- concentration in muscle compared to free Dox ([2]; 24 h): higher concentration
- concentration in spleen compared to free Dox ([2]; 24 h): lower concentration
- accumulation in kidneys compared to free Dox ([2]; 72 h): higher
- accumulation in liver compared to free Dox ([2]; 72 h): higher
- accumulation in lungs compared to free Dox ([2]; 72 h): higher
- accumulation in muscle compared to free Dox ([2]; 72 h): higher
- tumor accumulation, fold greater than free Dox ([2]; 72 h): ~120 fold
- drug in plasma at late time point ([3]; 96 h after injection): detectable in plasma even 96 h after injection
- Area under curve (total plasma exposure) ([3]; i.v., 5 mg Dox Equiv. per kg BW, plasma): 2263.6 ± 44.7 µM·h
- Elimination half-life ([3]; i.v., 5 mg Dox Equiv. per kg BW, plasma, two-compartment model): 29.4 ± 0.8 h and 29.4 h
- area under the curve, fold higher than AlDox ([3]; mouse, in vivo): 3 fold
- drug released ([4]; pH 5.0, over 24 h, 37° C.): about 70%
- Dox release ([4]; pH 7.4, 37° C.): negligible; also recorded: low, basal level of release
